# Experimental data as given in patent US20170051068A1 (Janssen / Centocor, published 2017).
# T1: Recombinant human BCMA-Fc fusion protein (R&D Systems catalog #193-BC-050) (human, UniProt Q02223 1-54)
# T1 construct: also called hBCMA-Fc; Fc-BCMA Hu; not shown: Fc part of the bought fusion protein
# T1 sequence: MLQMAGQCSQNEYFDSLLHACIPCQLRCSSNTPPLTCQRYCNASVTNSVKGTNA
# T2: monomeric human BCMA (human, UniProt Q02223 1-54, limits assumed)
# T2 construct: also called monomeric BCMA antigen
# T2 sequence: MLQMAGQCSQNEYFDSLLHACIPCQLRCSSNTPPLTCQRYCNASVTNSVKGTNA
# Legend:
# [1] = molecular target: T3, Fc-fusion cyno BCMA (in-house; Cat# BCMW6.001) (cyno, UniProt Q02223 1-54 (human entry)); assay: SPR, Fc-BCMA, two-state model, step 2
# T3 construct: also called Fc-BCMA Cy; cyno Fc-BCMA; not shown: Fc part
# [2] = molecular target: T1, Recombinant human BCMA-Fc fusion …; assay: SPR, Fc-BCMA, two-state model, step 2
# [3] = molecular target: T3, Fc-fusion cyno BCMA (in-house; Cat# …); assay: SPR, Fc-BCMA, two-state model, first complex
# [4] = molecular target: T1, Recombinant human BCMA-Fc fusion …; assay: SPR, Fc-BCMA, two-state model, first complex
# [5] = molecular target: T3, Fc-fusion cyno BCMA (in-house; Cat# …); assay: SPR, Fc-BCMA, two-state model, Final KD; Final complex KD, two-state model
# [6] = molecular target: T1, Recombinant human BCMA-Fc fusion …; assay: as above
# [7] = molecular target: T3, Fc-fusion cyno BCMA (in-house; Cat# …); assay: SPR, Fc-BCMA, two-state model, step 1 (kon1); first step (kon1)
# [8] = molecular target: T1, Recombinant human BCMA-Fc fusion …; assay: as above
# [9] = molecular target: T3, Fc-fusion cyno BCMA (in-house; Cat# …); assay: SPR, Fc-BCMA, two-state model, step 1 (koff1); first step (koff1)
# [10] = molecular target: T1, Recombinant human BCMA-Fc fusion …; assay: as above
# [11] = molecular target: T1, Recombinant human BCMA-Fc fusion …; assay: SPR, human Fc-BCMA
# [12] = molecular target: T2, monomeric human BCMA; assay: SPR
# [13] = molecular target: T2, monomeric human BCMA; assay: SPR, monomeric human BCMA
Binder,koff2 [1],kon2 [1],koff2 [2],kon2 [2],KD1 [3],KD1 [4],Kd [5],Kd [6],kon [7],kon [8],koff [9],koff [10],fold weaker affinity than BCMB72 [11],fold weaker affinity than BCMB69 [12],Kd [13],koff [13],kon [13]
"BC3B8 (BCMA×CD3 bispecific antibody, BCMB123 × CD3B219) (bispecific antibody, human IgG4 S228P, lambda, F234A L235A, IgG4 made by Fab arm exchange; also called B123 × B219) heavy 1: EVQLVESGGGLVQPGGSLRLSCAASGFTFNTYAMNWVRQAPGKGLEWVARIRSKYNNYATYYAASVKGRFTISRDDSKNSLYLQMNSLKTEDTAVYYCARHGNFGNSYVSWFAYWGQGTLVTVSSASTKGPSVFPLAPCSRSTSESTAALGCLVKDYFPEPVTVSWNSGALTSGVHTFPAVLQSSGLYSLSSVVTVPSSSLGTKTYTCNVDHKPSNTKVDKRVESKYGPPCPPCPAPEAAGGPSVFLFPPKPKDTLMISRTPEVTCVVVDVSQEDPEVQFNWYVDGVEVHNAKTKPREEQFNSTYRVVSVLTVLHQDWLNGKEYKCKVSNKGLPSSIEKTISKAKGQPREPQVYTLPPSQEEMTKNQVSLTCLVKGFYPSDIAVEWESNGQPENNYKTTPPVLDSDGSFLLYSKLTVDKSRWQEGNVFSCSVMHEALHNHYTQKSLSLSLGK light 1: QTVVTQEPSLTVSPGGTVTLTCRSSTGAVTTSNYANWVQQKPGQAPRGLIGGTNKRAPGTPARFSGSLLGGKAALTLSGVQPEDEAEYYCALWYSNLWVFGGGTKLTVLGQPKAAPSVTLFPPSSEELQANKATLVCLISDFYPGAVTVAWKADSSPVKAGVETTTPSKQSNNKYAASSYLSLTPEQWKSHRSYSCQVTHEGSTVEKTVAPTECS heavy 2: not shown light 2: SYVLTQPPSVSVAPGQTARITCGGNNIGSKSVHWYQQPPGQAPVVVVYDDSDRPSGIPERFSGSNSGNTATLTISRVEAGDEAVYYCQVWDSSSDHVVFGGGTKLTVLGQPKAAPSVTLFPPSSEELQANKATLVCLISDFYPGAVTVAWKADSSPVKAGVETTTPSKQSNNKYAASSYLSLTPEQWKSHRSYSCQVTHEGSTVEKTVAPTECS",0.000326 s⁻¹,0.00194 s⁻¹,0.000594 s⁻¹,0.00313 s⁻¹,6.77 nM,0.91 nM,0.97 nM,0.14 nM,1.09e+06 M⁻¹ s⁻¹,1.35e+06 M⁻¹ s⁻¹,0.00734 s⁻¹,0.00123 s⁻¹,,,,,
"BC3B10 (BCMA×CD3 bispecific antibody, BCMB129 × CD3B219) (bispecific antibody, human IgG4 S228P, lambda, F234A L235A, IgG4 made by Fab arm exchange; also called B129 × B219) heavy 1: EVQLVESGGGLVQPGGSLRLSCAASGFTFNTYAMNWVRQAPGKGLEWVARIRSKYNNYATYYAASVKGRFTISRDDSKNSLYLQMNSLKTEDTAVYYCARHGNFGNSYVSWFAYWGQGTLVTVSSASTKGPSVFPLAPCSRSTSESTAALGCLVKDYFPEPVTVSWNSGALTSGVHTFPAVLQSSGLYSLSSVVTVPSSSLGTKTYTCNVDHKPSNTKVDKRVESKYGPPCPPCPAPEAAGGPSVFLFPPKPKDTLMISRTPEVTCVVVDVSQEDPEVQFNWYVDGVEVHNAKTKPREEQFNSTYRVVSVLTVLHQDWLNGKEYKCKVSNKGLPSSIEKTISKAKGQPREPQVYTLPPSQEEMTKNQVSLTCLVKGFYPSDIAVEWESNGQPENNYKTTPPVLDSDGSFLLYSKLTVDKSRWQEGNVFSCSVMHEALHNHYTQKSLSLSLGK light 1: QTVVTQEPSLTVSPGGTVTLTCRSSTGAVTTSNYANWVQQKPGQAPRGLIGGTNKRAPGTPARFSGSLLGGKAALTLSGVQPEDEAEYYCALWYSNLWVFGGGTKLTVLGQPKAAPSVTLFPPSSEELQANKATLVCLISDFYPGAVTVAWKADSSPVKAGVETTTPSKQSNNKYAASSYLSLTPEQWKSHRSYSCQVTHEGSTVEKTVAPTECS heavy 2: not shown light 2: SYVLTQPPSVSVAPGQTARITCGGNNIGSKSVHWYQQPPGQAPVVVVYDDSDRPSGIPERFSGSNSGNTATLTISRVEAGDEAVYYCQVWDSSSDHVVFGGGTKLTVLGQPKAAPSVTLFPPSSEELQANKATLVCLISDFYPGAVTVAWKADSSPVKAGVETTTPSKQSNNKYAASSYLSLTPEQWKSHRSYSCQVTHEGSTVEKTVAPTECS",0.000359 s⁻¹,0.00165 s⁻¹,0.000531 s⁻¹,0.00453 s⁻¹,6.84 nM,1.5 nM,1.22 nM,0.16 nM,930000 M⁻¹ s⁻¹,1.02e+06 M⁻¹ s⁻¹,0.00636 s⁻¹,0.00155 s⁻¹,,,,,
"BC3B11 (BCMA×CD3 bispecific antibody, BCMB176 × CD3B219) (bispecific antibody, human IgG4 S228P, lambda, F234A L235A, IgG4 made by Fab arm exchange; also called B176 × B219) heavy 1: EVQLVESGGGLVQPGGSLRLSCAASGFTFNTYAMNWVRQAPGKGLEWVARIRSKYNNYATYYAASVKGRFTISRDDSKNSLYLQMNSLKTEDTAVYYCARHGNFGNSYVSWFAYWGQGTLVTVSSASTKGPSVFPLAPCSRSTSESTAALGCLVKDYFPEPVTVSWNSGALTSGVHTFPAVLQSSGLYSLSSVVTVPSSSLGTKTYTCNVDHKPSNTKVDKRVESKYGPPCPPCPAPEAAGGPSVFLFPPKPKDTLMISRTPEVTCVVVDVSQEDPEVQFNWYVDGVEVHNAKTKPREEQFNSTYRVVSVLTVLHQDWLNGKEYKCKVSNKGLPSSIEKTISKAKGQPREPQVYTLPPSQEEMTKNQVSLTCLVKGFYPSDIAVEWESNGQPENNYKTTPPVLDSDGSFLLYSKLTVDKSRWQEGNVFSCSVMHEALHNHYTQKSLSLSLGK light 1: QTVVTQEPSLTVSPGGTVTLTCRSSTGAVTTSNYANWVQQKPGQAPRGLIGGTNKRAPGTPARFSGSLLGGKAALTLSGVQPEDEAEYYCALWYSNLWVFGGGTKLTVLGQPKAAPSVTLFPPSSEELQANKATLVCLISDFYPGAVTVAWKADSSPVKAGVETTTPSKQSNNKYAASSYLSLTPEQWKSHRSYSCQVTHEGSTVEKTVAPTECS heavy 2: not shown light 2: SYVLTQPPSVSVAPGQTARITCGGNNIGSKSVHWYQQPPGQAPVVVVYDDSDRPSGIPERFSGSNSGNTATLTISRVEAGDEAVYYCQVWDSSSDHVVFGGGTKLTVLGQPKAAPSVTLFPPSSEELQANKATLVCLISDFYPGAVTVAWKADSSPVKAGVETTTPSKQSNNKYAASSYLSLTPEQWKSHRSYSCQVTHEGSTVEKTVAPTECS",0.000395 s⁻¹,0.00147 s⁻¹,0.000689 s⁻¹,0.00252 s⁻¹,3.56 nM,0.58 nM,0.75 nM,0.12 nM,1.93e+06 M⁻¹ s⁻¹,2.26e+06 M⁻¹ s⁻¹,0.00683 s⁻¹,0.00132 s⁻¹,2 to 3 fold,,,,
"BCMB123 (antibody, human IgG4 S228P, lambda, F234A L235A, V domains shown, IgG4 S228P, L234A, L235A; also called BCBM123) VH: QLQLQESGPGLVKPSETLSLTCTVSGGSISSSSYFWGWIRQPPGKGLEWIGSIYYSGITYYNPSLKSRVTISVDTSKNQFSLKLSSVTAADTAVYYCARHDGAVAGLFDYWGQGTLVTVSS VL: SYVLTQPPSVSVAPGQTARITCGGNNIGSKSVHWYQQPPGQAPVVVVYDDSDRPSGIPERFSGSNSGNTATLTISRVEAGDEAVYYCQVWDSSSDHVVFGGGTKLTVLG",,,,,,,,,,,,,,3 to 15 fold,5.12 nM,0.011 s⁻¹,2.14e+06 M⁻¹ s⁻¹
"BCMB176 (antibody, human IgG4 S228P, lambda, F234A L235A, V domains shown, IgG4 S228P, L234A, L235A; also called BCBM176) VH: QLQLQESGPGLVKPSETLSLTCTVSGGSISSSSYFWGWIRQPPGKGLEWIGSIYYSGITYYNPSLKSRVTISVDTSKNQFSLKLSSVTAADTAVYYCARHDGATAGLFDYWGQGTLVTVSS VL: SYVLTQPPSVSVAPGQTARITCGGNNIGSKSVHWYQQPPGQAPVVVVYDDSDRPSGIPERFSGSNSGNTATLTISRVEAGDEAVYYCQVWDSSSDHVVFGGGTKLTVLG",,,,,,,,,,,,,,,7.18 nM,0.0288 s⁻¹,4e+06 M⁻¹ s⁻¹
"BCMB129 (antibody, human IgG4 S228P, lambda, F234A L235A, V domains shown, IgG4 S228P, L234A, L235A; also called BCBM129) VH: QLQLQESGPGLVKPSETLSLTCTVSGGSISSGSYFWGWIRQPPGKGLEWIGSIYYSGSTYYNPSLKSRVTISVDTSKNQFSLKLSSVTAADTAVYYCARHDGAVAGLFDYWGQGTLVTVSS VL: SYVLTQPPSVSVAPGQTARITCGGNNIGSKSVHWYQQPPGQAPVVVVYDDSDRPSGIPERFSGSNSGNTATLTISRVEAGDEAVYYCQVWDSSSDHVVFGGGTKLTVLG",,,,,,,,,,,,,,,5.47 nM,0.00843 s⁻¹,1.54e+06 M⁻¹ s⁻¹
"BCMB128 (antibody, human IgG4 S228P, lambda, F234A L235A, V domains shown, IgG4 S228P, L234A, L235A; also called BCBM128) VH: QLQLQESGPGLVKPSETLSLTCTVSGGSISSGSYFWGWIRQPPGKGLEWIGSIYYSGITYYNPSLKSRVTISVDTSKNQFSLKLSSVTAADTAVYYCARHDGATAGLFDYWGQGTLVTVSS VL: SYVLTQPPSVSVAPGQTARITCGGNNIGSKSVHWYQQPPGQAPVVVVYDDSDRPSGIPERFSGSNSGNTATLTISRVEAGDEAVYYCQVWDSSSDHVVFGGGTKLTVLG",,,,,,,,,,,,,,,2.07 nM,0.0087 s⁻¹,4.2e+06 M⁻¹ s⁻¹
"BCMB177 (antibody, human IgG4 S228P, lambda, F234A L235A, V domains shown, IgG4 S228P, L234A, L235A; also called BCBM177) VH: QLQLQESGPGLVKPSETLSLTCTVSGGSISSSSYFWGWIRQPPGKGLEWIGSIYYSGRTYYNPSLKSRVTISVDTSKNQFSLKLSSVTAADTAVYYCARHDGATAGLFDYWGQGTLVTVSS VL: SYVLTQPPSVSVAPGQTARITCGGNNIGSKSVHWYQQPPGQAPVVVVYDDSDRPSGIPERFSGSNSGNTATLTISRVEAGDEAVYYCQVWDSSSDHVVFGGGTKLTVLG",,,,,,,,,,,,,,3 to 15 fold,20.2 nM,0.0566 s⁻¹,2.8e+06 M⁻¹ s⁻¹
